Assay results as given in patent US20260109745A1.

Key:
[1] = target: MUC5AC (NPC-1 antigen, tumor variant) as expressed on human pancreatic tumor cell lines (human) (UniProt P98088); assay: immunofluorescence on fixed, permeabilized CFPAC-1 cells, 2 ug/ml
[2] = target: MUC5AC (NPC-1 antigen, tumor variant) as expressed by human colorectal tumor cell lines (human) (UniProt P98088); assay: flow cytometry on Colo-205 colorectal tumor cells
[3] = target: MUC5AC (NPC-1 antigen, tumor variant) as expressed on human pancreatic tumor cell lines (human) (UniProt P98088); assay: flow cytometry on CFPAC-1 pancreatic tumor cells
[4] = target: MUC5AC (NPC-1 antigen, tumor variant) as expressed by human colorectal tumor cell lines (human) (UniProt P98088); assay: flow cytometry on SW480 colorectal tumor cells
[5] = target: MUC5AC (NPC-1 antigen, tumor variant) as expressed by human colorectal tumor cell lines (human) (UniProt P98088); assay: flow cytometry on LS174T colorectal tumor cells

MUC5AC (NPC-1 antigen, tumor variant) as expressed by human colorectal tumor cell lines (human), sequence (P98088 other isoform, or with tags, fused parts or gaps mutant limits assumed): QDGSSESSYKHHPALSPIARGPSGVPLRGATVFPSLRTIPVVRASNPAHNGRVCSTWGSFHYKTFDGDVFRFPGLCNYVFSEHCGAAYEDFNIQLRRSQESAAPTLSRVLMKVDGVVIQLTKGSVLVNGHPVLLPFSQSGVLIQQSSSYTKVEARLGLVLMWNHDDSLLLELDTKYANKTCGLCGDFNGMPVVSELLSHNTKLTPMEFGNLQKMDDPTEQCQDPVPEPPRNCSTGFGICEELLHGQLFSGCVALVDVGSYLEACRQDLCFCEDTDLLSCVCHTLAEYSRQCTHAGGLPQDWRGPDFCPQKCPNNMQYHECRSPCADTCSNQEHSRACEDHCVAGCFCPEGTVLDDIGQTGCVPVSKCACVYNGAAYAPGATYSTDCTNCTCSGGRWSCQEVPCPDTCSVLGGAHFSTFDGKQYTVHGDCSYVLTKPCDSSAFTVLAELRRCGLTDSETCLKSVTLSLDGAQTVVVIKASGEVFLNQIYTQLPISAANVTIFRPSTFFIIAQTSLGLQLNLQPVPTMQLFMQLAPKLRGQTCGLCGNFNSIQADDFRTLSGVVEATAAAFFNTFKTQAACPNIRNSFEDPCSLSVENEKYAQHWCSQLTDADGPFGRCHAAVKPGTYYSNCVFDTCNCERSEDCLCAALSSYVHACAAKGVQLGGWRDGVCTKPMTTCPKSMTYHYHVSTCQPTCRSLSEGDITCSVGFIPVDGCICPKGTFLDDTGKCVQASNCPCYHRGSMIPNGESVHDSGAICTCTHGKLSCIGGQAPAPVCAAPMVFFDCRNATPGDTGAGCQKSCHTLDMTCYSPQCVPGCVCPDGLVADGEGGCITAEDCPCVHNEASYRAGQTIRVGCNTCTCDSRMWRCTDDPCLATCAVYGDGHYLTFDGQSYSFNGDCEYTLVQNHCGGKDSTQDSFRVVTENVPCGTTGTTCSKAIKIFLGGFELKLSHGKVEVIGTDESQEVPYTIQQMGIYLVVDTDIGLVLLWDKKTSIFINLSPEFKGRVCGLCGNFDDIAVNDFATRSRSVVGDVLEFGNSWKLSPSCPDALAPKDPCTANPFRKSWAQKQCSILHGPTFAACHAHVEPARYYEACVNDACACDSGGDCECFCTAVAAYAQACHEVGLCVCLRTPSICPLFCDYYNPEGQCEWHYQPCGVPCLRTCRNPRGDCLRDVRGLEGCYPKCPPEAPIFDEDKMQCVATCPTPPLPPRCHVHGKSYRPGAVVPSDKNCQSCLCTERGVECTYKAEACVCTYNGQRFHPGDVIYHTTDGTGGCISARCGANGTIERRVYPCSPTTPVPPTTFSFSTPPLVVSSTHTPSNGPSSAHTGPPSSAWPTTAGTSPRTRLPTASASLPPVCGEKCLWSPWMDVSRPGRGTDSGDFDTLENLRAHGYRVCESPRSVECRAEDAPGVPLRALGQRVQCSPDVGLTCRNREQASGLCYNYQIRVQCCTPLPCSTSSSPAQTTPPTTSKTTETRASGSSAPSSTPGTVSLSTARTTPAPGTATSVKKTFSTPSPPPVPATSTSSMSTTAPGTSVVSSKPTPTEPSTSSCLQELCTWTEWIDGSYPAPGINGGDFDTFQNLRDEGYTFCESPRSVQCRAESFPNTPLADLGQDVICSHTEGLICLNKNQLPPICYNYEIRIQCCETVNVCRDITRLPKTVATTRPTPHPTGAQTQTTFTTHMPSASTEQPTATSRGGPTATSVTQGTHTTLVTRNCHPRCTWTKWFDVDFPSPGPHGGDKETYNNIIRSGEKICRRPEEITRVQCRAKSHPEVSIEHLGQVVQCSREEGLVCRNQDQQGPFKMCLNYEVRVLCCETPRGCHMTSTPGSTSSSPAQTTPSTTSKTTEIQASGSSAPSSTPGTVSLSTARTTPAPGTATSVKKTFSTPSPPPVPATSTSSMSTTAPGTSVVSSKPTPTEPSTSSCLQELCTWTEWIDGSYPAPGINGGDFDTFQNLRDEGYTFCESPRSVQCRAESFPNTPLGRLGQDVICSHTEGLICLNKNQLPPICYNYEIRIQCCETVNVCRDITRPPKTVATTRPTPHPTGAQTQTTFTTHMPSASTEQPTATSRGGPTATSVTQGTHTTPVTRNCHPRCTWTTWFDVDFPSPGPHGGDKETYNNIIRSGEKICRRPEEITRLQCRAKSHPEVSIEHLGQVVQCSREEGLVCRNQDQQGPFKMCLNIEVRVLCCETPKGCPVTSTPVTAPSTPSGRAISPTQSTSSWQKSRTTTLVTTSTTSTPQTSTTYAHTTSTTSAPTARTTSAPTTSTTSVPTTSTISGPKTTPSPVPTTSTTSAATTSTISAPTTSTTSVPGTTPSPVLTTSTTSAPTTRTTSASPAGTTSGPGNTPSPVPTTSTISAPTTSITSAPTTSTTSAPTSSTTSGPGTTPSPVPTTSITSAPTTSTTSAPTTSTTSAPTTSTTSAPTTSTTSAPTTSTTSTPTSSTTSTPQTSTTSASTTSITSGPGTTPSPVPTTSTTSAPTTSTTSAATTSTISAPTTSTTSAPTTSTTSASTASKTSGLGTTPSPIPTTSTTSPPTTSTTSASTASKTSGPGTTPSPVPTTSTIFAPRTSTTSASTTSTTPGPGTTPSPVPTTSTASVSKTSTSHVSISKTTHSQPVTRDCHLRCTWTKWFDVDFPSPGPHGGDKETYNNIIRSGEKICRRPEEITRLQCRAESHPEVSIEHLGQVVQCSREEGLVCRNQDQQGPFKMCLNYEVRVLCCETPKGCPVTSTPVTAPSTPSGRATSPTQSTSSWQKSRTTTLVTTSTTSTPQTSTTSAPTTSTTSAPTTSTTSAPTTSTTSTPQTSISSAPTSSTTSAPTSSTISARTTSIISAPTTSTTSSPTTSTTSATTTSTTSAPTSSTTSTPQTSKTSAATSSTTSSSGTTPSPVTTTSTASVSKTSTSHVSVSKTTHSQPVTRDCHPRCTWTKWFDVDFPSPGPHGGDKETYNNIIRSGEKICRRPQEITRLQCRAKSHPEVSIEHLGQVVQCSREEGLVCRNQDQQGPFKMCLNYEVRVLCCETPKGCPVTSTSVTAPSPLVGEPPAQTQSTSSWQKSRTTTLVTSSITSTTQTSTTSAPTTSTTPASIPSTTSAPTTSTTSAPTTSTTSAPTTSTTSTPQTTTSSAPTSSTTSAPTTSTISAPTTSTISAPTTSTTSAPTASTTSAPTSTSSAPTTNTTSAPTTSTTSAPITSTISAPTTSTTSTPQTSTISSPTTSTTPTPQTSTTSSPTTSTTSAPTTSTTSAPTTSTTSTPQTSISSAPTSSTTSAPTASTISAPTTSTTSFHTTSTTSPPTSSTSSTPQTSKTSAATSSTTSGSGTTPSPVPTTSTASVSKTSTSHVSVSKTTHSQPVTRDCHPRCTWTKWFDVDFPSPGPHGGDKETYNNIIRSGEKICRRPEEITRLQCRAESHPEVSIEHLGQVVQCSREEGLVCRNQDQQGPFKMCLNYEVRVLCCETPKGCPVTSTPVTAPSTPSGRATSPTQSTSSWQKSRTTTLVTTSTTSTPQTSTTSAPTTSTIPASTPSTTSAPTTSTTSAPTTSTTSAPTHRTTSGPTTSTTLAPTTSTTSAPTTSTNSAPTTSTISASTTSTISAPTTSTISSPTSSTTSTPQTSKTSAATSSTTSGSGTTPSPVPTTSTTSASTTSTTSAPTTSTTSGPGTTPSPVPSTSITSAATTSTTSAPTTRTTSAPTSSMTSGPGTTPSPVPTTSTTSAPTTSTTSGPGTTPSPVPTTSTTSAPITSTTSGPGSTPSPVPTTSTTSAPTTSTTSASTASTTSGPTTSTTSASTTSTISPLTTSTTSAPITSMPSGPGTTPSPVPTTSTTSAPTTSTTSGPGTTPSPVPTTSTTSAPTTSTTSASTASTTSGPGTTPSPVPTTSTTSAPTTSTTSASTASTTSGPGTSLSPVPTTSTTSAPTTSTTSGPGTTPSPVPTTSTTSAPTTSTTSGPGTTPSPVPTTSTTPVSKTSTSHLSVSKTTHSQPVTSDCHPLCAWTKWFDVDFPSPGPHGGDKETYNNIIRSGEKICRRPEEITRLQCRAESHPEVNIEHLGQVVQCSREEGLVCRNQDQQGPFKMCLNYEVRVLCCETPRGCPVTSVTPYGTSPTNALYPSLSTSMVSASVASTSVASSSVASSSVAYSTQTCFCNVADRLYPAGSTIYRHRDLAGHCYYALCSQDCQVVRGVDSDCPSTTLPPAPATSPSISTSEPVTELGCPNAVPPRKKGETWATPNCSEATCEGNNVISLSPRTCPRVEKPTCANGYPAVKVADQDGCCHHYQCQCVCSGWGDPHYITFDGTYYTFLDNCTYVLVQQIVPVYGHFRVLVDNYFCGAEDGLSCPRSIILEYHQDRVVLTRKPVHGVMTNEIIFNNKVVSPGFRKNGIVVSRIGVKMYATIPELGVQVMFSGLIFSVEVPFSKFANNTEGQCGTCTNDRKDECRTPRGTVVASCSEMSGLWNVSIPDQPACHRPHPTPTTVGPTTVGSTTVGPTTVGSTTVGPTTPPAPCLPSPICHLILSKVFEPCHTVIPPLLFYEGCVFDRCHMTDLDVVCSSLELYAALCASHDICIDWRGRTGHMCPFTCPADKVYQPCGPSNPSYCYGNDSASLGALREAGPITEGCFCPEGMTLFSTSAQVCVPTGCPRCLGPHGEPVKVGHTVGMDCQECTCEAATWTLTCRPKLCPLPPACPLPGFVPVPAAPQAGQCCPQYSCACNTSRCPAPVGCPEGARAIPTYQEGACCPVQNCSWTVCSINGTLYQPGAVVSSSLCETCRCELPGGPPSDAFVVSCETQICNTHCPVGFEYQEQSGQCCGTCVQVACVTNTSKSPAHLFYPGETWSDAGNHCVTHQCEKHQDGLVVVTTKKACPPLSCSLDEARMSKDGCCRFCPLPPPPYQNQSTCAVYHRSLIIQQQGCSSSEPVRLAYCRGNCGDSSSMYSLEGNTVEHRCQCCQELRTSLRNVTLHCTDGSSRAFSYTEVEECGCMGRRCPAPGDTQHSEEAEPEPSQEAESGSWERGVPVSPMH
MUC5AC (NPC-1 antigen, tumor variant) as expressed on human pancreatic tumor cell lines (human), sequence (P98088 other isoform, or with tags, fused parts or gaps mutant limits assumed): as above

| % of cells stained [1] [%] | % Cells Stained [2] [%] | % Cells Stained [3] [%] | % Cells Stained [4] [%] | % Cells Stained [5] [%] | Substance |
| --- | --- | --- | --- | --- | --- |
| 100 | – | – | – | – | Polyclonal rabbit anti-MUC5AC antibody (H-160) (Santa Cruz Biotechnology Inc.) |
| – | 2.33 | 1.79 | 3.38 | 3.85 | Isotype control antibody |
